Biological target: T1, ETA, wild type, as used in the size exclusion chromatography analysis with Fab301 (Homo sapiens, UniProt P25101)
T1 construct: endothelin receptor type A (ETA), human; Probably one of the insect cell constructs m1 or m3; also called WT; WT ETA
Test: SEC; retention time of each ETA ECL2 alanine mutant–Fab301 complex against the WT–Fab301 complex

T1 sequence (P25101 21-427): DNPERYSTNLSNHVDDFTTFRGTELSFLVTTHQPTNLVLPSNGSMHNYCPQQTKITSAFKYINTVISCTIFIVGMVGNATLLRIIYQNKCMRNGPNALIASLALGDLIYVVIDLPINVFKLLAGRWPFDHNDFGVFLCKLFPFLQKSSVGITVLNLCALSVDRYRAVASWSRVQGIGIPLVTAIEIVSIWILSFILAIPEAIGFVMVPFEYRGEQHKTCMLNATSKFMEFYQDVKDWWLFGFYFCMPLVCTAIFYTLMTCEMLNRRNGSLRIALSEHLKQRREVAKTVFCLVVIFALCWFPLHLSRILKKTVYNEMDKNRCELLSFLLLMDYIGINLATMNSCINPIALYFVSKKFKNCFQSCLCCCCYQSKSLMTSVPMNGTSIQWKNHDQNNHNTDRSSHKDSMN

B1: Fab301, Fab fragment of the anti-ETA monoclonal antibody Getagozumab (Fab, V domains shown)
VH: QVTLKESGPTLVKPTQTLTLTCTFSGFSLTTSGLGVAWIRQPPGKALEWLAHIWSDGDTRYYPALKNRLTITKDTSKNQVVLTMTNMDPVDTATYYCAHMKDDSLYFDNWGQGTLVTVSS
VL: EIVLTQSPDFQSVTPKEKVTITCRASQNIGTSIHWYQQKPDQYPKLLIKYASKSISGVPSRFSGSGSGTDFTLTINSLEAEDAATYYCQHSYSFPWTFGQGTKVEIK
notes: Purified on Ni-NTA, so one chain probably carries a His tag; In the ambrisentan and zibotentan maps the dynamic regions of Fab301 were masked out; also called ETA-specific antibody; Getagozumab Fab; source: Hi5 insect cells, baculovirus (pFastBac Dual), from the culture supernatant, purified (Ni-NTA, Superdex 200)
- binding result: binds
